Reference: doi:10.1101/2021.01.30.428887
Where two headings read alike, the source gives them in different places.

What was measured:
Assay in all cases: quadruple optical trap force measurement
[1] = biological target: Human vimentin C328N with three additional amino acids, GGC, at the C-terminus (human)
[2] = biological target: Human vimentin C328N with three additional amino acids, GGC, at the C-terminus (human); remark: listed apart in the source
[3] = biological target: Human vimentin C328N with three additional amino acids, GGC, at the C-terminus (human); remark: listed apart in the source
[4] = biological target: Human vimentin C328N with three additional amino acids, GGC, at the C-terminus (human); remark: listed apart in the source
[5] = biological target: Human vimentin C328N with three additional amino acids, GGC, at the C-terminus (human); remark: listed apart in the source
[6] = biological target: Human vimentin C328N with three additional amino acids, GGC, at the C-terminus (human); remark: listed apart in the source
[7] = biological target: Human vimentin C328N with three additional amino acids, GGC, at the C-terminus (human); remark: listed apart in the source

koff [1]: 0.15 s⁻¹
maximal interaction (rupture) force [2]: 85 pN
koff [3]: 0.08 s⁻¹
koff [4]: 0.1 s⁻¹
koff [5]: 0.2 s⁻¹
koff [6]: 0.18 s⁻¹
maximal interaction (rupture) force [6]: 112 pN
maximal interaction (rupture) force [7]: 57 pN
Substance: Human vimentin C328N with three additional amino acids, GGC, at the C-terminus (natural protein)
